Experimental data: US20020132773A1, “Methods for reducing fat by administration of adiponectin” (Oklahoma Medical Research Foundation, priority 2001, published 2002)
“Also recorded” adds a separate entry of the source.

Key:
BMS2 cells = assay: Adipocyte differentiation of BMS2 cells; format: cell-based; conditions: for fat cell formation (adipogenesis) of BMS2 cells: 5 μg/ml insulin and 0.5 mM MIBX, 10 days, proteins 10 μg/ml, PGE2 and Dup-697 1×10^-6 M, microscopy
Description: (§1) Differentiation of BMS2 cells to adipocytes was achieved by treatment with 5 μg/ml insulin and 0.5 mM MIBX for 10 days. Differentiation of MS5 cells to adipocytes was achieved by treatment with 5 μg/ml insulin alone for 15 days. Cultures were treated with adiponectin, PGE2 or Dup-697 from the time of culture initiation. At the end of this period, cultures were photographed and then stained with Nile red to detect lipid accumulation indicative of adipocyte differentiation. The extent of differentiation was estimated by flow cytometry (FACScan; Becton-Dickinson, San Jose, Calif.).

3T3-L1 cells = assay: Adipocyte generation by 3T3-L1 cell line; format: cell-based; conditions: insulin as only inducing agent; adiponectin 10 μg/ml, PGE2 1×10^-6 M
From the text: Normal human bone marrow was collected by biopsy from the posterior iliac crest of healthy young volunteers with informed consent, and used for immunohistchemical analysis of adiponectin. BMS2 and 3T3-L1 cells were maintained in D-MEM (high glucose) supplemented with 10% fetal calf serum (FCS) (HyClone, Logan, Utah). MS5 cells were maintained in α-MEM medium supplemented with 10% FCS. Balb/c mice at 3-6 weeks old: were obtained from Charles Rivers Breeding Labatories (Wilmington, Me.). B6,129S-^Ptgs2tm1Jed (COX-2^+/−) mice and C57BL/6 mice (3-5 weeks old) were purchased from the Jackson Laboratory (Bar Harbor, Me.). High mortality and unavailability precluded use of homozygous COX^−/− animals in these experiments, but a single targeted allele abrogated preadipocyte responses to adiponectin.
Bone marrow cultures represent a complex mixture of hematopoietic cells that mature through interactions with an adherent stromal layer composed of fibroblasts, adipocytes, macrophages and endothelial cells.

[1] = system: C/EBP-α and PPAR-γ in BMS2 preadipocytes; assay: Adipocyte gene expression analysis (Northern blot) in BMS2 cells; format: cell-based
Description: (§2) Poly(A)^+mRNA was prepared from the indicated samples using oligo(dT) columns (Ambion Inc, Austin, Tex.). Aliquots oifpoly(A)^+ mRNA (2 μg) were denatured in formamide and formaldehyde at 65 C and electrophoresed on formaldehyde-containing agarose gels. After capillary transfer to nylon membranes (MSI, Westbourough, Mass.), the RNA was crosslinked by UV exposure. cDNA probes for CCAAT/enhancer binding protein-α(C/EBP-α) and adipocyte P2 (aP2) were obtained from ResGen™ Invitrogen (Huntsville, Ala.) and American Type Culture Collection (Manassas, Va.) respectively. Probes with sizes corresponding to PPAR-γ, COX-1 and COX-2 were prepared as PCR products and all probes were radiolabeled with [α-^32P]dCTP using the random prime labeling system (Redi Prime™ II) purchased from Amersham Pharmacia Biotech.
as §1

[2] = system: bone marrow cells of normal Balb/c mice (LTBMC); assay: Long-term bone marrow cultures (LTBMC, Dexter cultures); format: cell-based, mouse
Description: LTBMC that support formation of myeloid cells (Dexter cultures) were initiated and maintained by published methods (Dexter, T. M. and Testa, N. G. Methods Cell Biol. 14:387-405 (1976)). Bone marrow cells of normal Balb/c mice (12×10^6) were cultured in 25-cm^2 flasks in 5% CO2 at 33 C. The medium consisted of α-MEM supplemented with 100 nM hydrocortisone and 20% horse serum (HyClone). Cultures were treated with adiponectin or bovine serum albumin (BSA) beginning at culture initiation and thereafter weekly for 6 weeks. In some experiments, adiponectin was omitted from the media after 6 weeks of culture, and maintained for another 6 weeks with medium alone.

MS5 cells = assay: Adipocyte differentiation of MS5 cells; format: cell-based; conditions: 5 μg/ml insulin, 15 days; adiponectin 10 μg/ml
Description: as §1

[3] = system: MS5 or BMS2 stromal cell clones; assay: RT-PCR / Northern blot of transcripts in adiponectin-treated preadipocytes; format: cell-based
Description: Total RNA was isolated from MS5 or BMS2 cells treated with adiponectin for various periods using TRIzol Reagent (GIBCO-BRL, Grand Island, N.Y.) and suspended in DEPC-treated water. After treating total RNA with DNase (GIBCO-BRL), cDNA was made using random hexamers and moloney murine leukemia virus reverse transcriptase (GIBCO-BRL). For PCR, 10 μl of the RT mixtures described above were added to PCR buffer containing 1.5 mM MgCl2, 1 U Taq polymerase (Perkin Elmer, Norwalk, Conn.), 2 mM each dNTP, and relevant sense and antisense primers. The DNA in the PCR reaction mixtures was amplified using 25 to 35 cycles of 94 C for 1 min, 55 C for 2 min and 72 C for 3 min. The oligonucleotide primers used for these reactions were 5′-[…]-3′ (SEQ ID NO:5) and 5′-[…]-3′ (SEQ ID NO:6) for COX-2, and 5′-[…]-3′ (SEQ ID NO:7) and 5′-[…]-3′ (SEQ ID NO:8) for COX-1. Primers for TNF-α, TGF-β, interferon (IFN)-α/β/γ, and limitin were also prepared and used in this study.
as §2

MS5 or BMS2 cells = assay: Enzyme-immunoassay for PGE2 in culture supernatants; format: cell-based; conditions: confluent BMS2 or MS5 cells, versus BSA
Description: Confluent MS5 or BMS2 cells prepared in 24-well plates were incubated in 500 μl of media with or without adiponectin. Supernatants from these cultures were examined for the presence of PGE2 using an enzyme-immunoassay kit purchased from Cayman Chemical.

[4] = system: normal C57BL/6 bone marrow; assay: Adherent bone marrow cell cultures, normal mice; format: cell-based, mouse; conditions: treated weekly for 6 weeks
Description: (§3) Adherent bone marrow cell cultures were established with heterozygous knockout COX-2^+/− mice or normal C57BL/6 mice. BM cells were suspended at 2×10^5 per 6 ml of Dexter culture media and seeded in 25-cm^2 flasks. This cell concentration gives rise to adherent stromal layers without myeloid cell growth. Cultures were treated with adiponecitin or BSA at the time of culture initiation and weekly thereafter for 6 weeks.

[5] = system: bone marrow cells of heterozygous knockout COX-2+/- mice; assay: Adherent bone marrow cell cultures, COX-2+/- mice; format: cell-based, mouse; conditions: cells derived from COX-2+/- animals, treated weekly for 6 weeks
Description: as §3

[6] = system: CFU-granulocyte-macrophage, CFU-macrophage, CFU-granulocyte, BFU-erythroid, mixed erythroid-myeloid CFU; conditions: cited from earlier work
myeloid cell lines = conditions: cited from earlier work
cultured macrophages = conditions: cited from earlier work
[7] = BMS2 cells, Nile red staining, flow cytometry

In the case of `CCCCC[C@H](O)/C=C/[C@H]1[C@H](O)CC(=O)[C@@H]1C/C=C\CCCC(=O)O` [PGE2, prostaglandin E2, reference compound], the “fat cell formation (adipogenesis) of BMS2 cells” value (BMS2 cells) is reported as “blocked”, the “lipid accumulation induced by insulin and MIBX” value (BMS2 cells; [7]) is reported as “completely blocked” and the “generation of adipocytes by 3T3-L1 line” value (3T3-L1 cells) is reported as “minimally affected”. The “increases of C/EBP-α and PPAR-γ expression induced by insulin and MIBX” value [1] was “strongly inhibited”.

B1: adiponectin: adipocyte-specific secretory protein of 244 amino acid residues; human recombinant peptide leader deficient protein, 32 kD monomer with multimers (protein)
chain: ETTTQGPGVLLPLPKGACTGWMAGIPGHPGHNGAPGRDGRDGTPGEKGEKGDPGLIGPKGDIGETGVPGAEGPRGFPGIQGRKGEPGEGAYVYRSAFSVGLETYVTIPNMPIRFTKIFYNQQNHYDGSTGKFHCNIPGLYYFAYHITVYMKDVKVSLFKKDKAMLFTYDQYQENNVDQASGSVLLHLEVGDQVWLQVYGEGERNGLYADNDNDSTFTGFLLYHDTN
In the case of B1, the “fat cell formation in LTBMC” value ([2]; adiponectin 10 μg/ml in medium, from culture initiation and weekly for 6 weeks) is reported as “completely inhibited”, the “influence on myelopoiesis in LTBMC” value ([2]; adiponectin 10 μg/ml, conditions that favor myeloid cell production) is reported as “no influence” and the “reversibility of the negative influence on fat cell formation” value ([2]; adiponectin omitted after 6 weeks, another 6 weeks with medium alone) is reported as “reversible”. For the same molecule, the “fat cell formation (adipogenesis) of BMS2 cells” value (BMS2 cells) was “substantial suppression”, the “fat cell formation (adipogenesis) of BMS2 cells” value (BMS2 cells; listed as Adiponectin) was “blocked adipogenesis” and the “lipid accumulation induced by insulin and MIBX” value (BMS2 cells; [7]) was “completely blocked”. For the same molecule, the “response (block of lipid accumulation) to adiponectin with COX-2 inhibitor included” value (BMS2 cells; BMS2 cells, Nile red staining, flow cytometry, Dup-697 1×10^-6 M) was “substantially blocked”, the “inhibition of BMS2 fat cell formation by adiponectin with Dup-697 present” value (BMS2 cells; insulin and MIBX, COX-2 inhibitor Dup-697 1×10^-6 M present) was “not observed” and the “suppression of adipocyte differentiation of MS5 clone” value (MS5 cells) was “substantial suppression”. The “generation of adipocytes by 3T3-L1 line” value (3T3-L1 cells) was “only slightly inhibited; also recorded: minimally affected”, the “basal expression of TGF-β, interferon-α/β/γ and limitin” value [3] was “not obviously influenced” and the “transcripts corresponding to TNF-α or interferon-β” value ([3]; MS5 cells, adiponectin added to cultures) was “not detectable”. The “transcripts for COX-2” value ([3]; MS5 or BMS2 stromal cell clones, confirmed by Northern blot) was “upregulated”, the “increase in PGE2 secretion” value (MS5 or BMS2 cells) was “approximately two-fold” and the “adipogenesis in adherent bone marrow cell cultures” value [4] was “blocked adipogenesis”. The “effect on adipogenesis in adherent bone marrow cell cultures” value [5] was “minimum effect; also recorded: negligible”, the “increases of C/EBP-α and PPAR-γ expression induced by insulin and MIBX” value [1] was “strongly inhibited” and the “effect of adiponectin on C/EBP-α and PPAR-γ expression with Dup-697” value ([1]; insulin and MIBX, Dup-697 1×10^-6 M) was “abrogated”. The “colony formation from CFU-granulocyte-macrophage, CFU-macrophage and CFU-granulocyte” value [6] was “suppresses colony formation”, the “colony formation of burst-forming units-erythroid or mixed erythroid-myeloid CFU” value [6] was “no effect” and the “number of myeloid cell lines whose proliferation is inhibited” value (myeloid cell lines) was 4 of 9. For the same molecule, the “lipopolysaccharide-induced production of tumor necrosis factor-α by cultured macrophages” value (cultured macrophages) was “significantly inhibits” and the “phagocytic activity of cultured macrophages” value (cultured macrophages) was “significantly inhibits”.
